{
  "source": "paper PMC11624282",
  "about": "“PARP1 condensates differentially partition DNA repair proteins and enhance DNA ligation”",
  "binders": {"B1": {"name": "triplex DNA (nicked) (dsDNA)", "DNA 1": "GCTTAGCTTGGAATCGTATCATGTACACTCGTGTGCCGTGTAGACCGTGCC", "DNA 2": "TGTACATGATACGATTCCAAGCTAAGC", "DNA 3": "GGCACGGTCTACACGGCACACGAG", "modifications": "5'-phosphate on S9"}, "B2": {"name": "60 bp DNA-ATTO647N (dsDNA)", "DNA 1": "ACGAAGTCTTATGGCAAAACCGATGGACTATGTTTCGGGTAGCACCAGAAGTCTATAACA", "DNA 2": "TGTTATAGACTTCTGGTGCTACCCGAAACATAGTCCATCGGTTTTGCCATAAGACTTCGT", "modifications": "5' BioTEG on S3"}},
  "key": {"mCherry-PARP1 [1]": {"target": "T1, mCherry-PARP1 (Homo sapiens, UniProt P09874 1-1014)", "T1 sequence (P09874 whole entry, the tested form may be a part)": "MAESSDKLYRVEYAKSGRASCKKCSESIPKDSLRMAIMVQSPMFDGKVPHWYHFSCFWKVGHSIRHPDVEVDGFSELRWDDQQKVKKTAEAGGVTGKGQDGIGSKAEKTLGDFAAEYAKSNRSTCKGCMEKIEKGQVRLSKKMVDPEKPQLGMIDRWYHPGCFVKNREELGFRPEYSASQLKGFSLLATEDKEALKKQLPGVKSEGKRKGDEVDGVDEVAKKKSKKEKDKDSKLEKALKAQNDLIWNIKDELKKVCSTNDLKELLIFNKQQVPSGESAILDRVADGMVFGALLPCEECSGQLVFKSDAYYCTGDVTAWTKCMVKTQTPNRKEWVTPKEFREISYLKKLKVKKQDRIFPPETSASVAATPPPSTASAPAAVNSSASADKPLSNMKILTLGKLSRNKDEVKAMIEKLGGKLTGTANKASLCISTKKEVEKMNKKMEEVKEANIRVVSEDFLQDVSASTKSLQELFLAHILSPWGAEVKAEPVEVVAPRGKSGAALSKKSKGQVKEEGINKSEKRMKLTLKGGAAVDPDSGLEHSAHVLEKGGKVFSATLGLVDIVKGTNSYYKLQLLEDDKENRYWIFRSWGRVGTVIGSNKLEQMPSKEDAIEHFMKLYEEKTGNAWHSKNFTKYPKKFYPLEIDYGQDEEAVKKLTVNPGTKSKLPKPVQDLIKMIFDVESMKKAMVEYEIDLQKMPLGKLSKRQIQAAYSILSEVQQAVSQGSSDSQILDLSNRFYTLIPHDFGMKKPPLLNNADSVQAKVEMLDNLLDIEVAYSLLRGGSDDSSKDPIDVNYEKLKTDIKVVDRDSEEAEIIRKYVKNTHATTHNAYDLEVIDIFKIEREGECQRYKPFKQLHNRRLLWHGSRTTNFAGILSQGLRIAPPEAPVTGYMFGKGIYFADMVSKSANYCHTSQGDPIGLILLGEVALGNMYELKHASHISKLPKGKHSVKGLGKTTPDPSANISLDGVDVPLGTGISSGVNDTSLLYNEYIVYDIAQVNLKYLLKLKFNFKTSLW", "assay": "condensation, fluorescence microscopy; 4 µM protein; lost at high salt; reentrant at high DNA; Condensation (DIC, PARP1 truncations): 20 mM Tris pH 7.5, 50 mM NaCl, 7.5 mM MgCl2, 1 mM DTT; DNA curtains: 25-150 mM NaCl tested; temperature not stated", "conditions": "protein: recombinant; tags: mCherry (pET-SUMO-mCherry-PARP1); label: Cy5 at 5' of S10 (labelled version, 10% where stated); three annealed oligos, central nick, blunt ends"}, "PARP1": {"target": "PARP1 (Homo sapiens, UniProt P09874 1-1014)", "sequence (P09874 whole entry, the tested form may be a part)": "as above", "assay": "single-molecule oligo capture on lambda DNA; 5 nM PARP1, 20 nM oligo; 98% of oligos dissociate with 500 µM NAD+; Condensation (DIC, PARP1 truncations): 20 mM Tris pH 7.5, 50 mM NaCl, 7.5 mM MgCl2, 1 mM DTT; DNA curtains: 25-150 mM NaCl tested; temperature not stated", "conditions": "protein: recombinant; tags: none stated after His-SUMO cleavage; label: 3' ATTO647N on S4; blunt"}, "mCherry-PARP1 [2]": {"target": "T1, mCherry-PARP1", "assay": "condensation, fluorescence microscopy; 4 µM protein; Condensation (DIC, PARP1 truncations): 20 mM Tris pH 7.5, 50 mM NaCl, 7.5 mM MgCl2, 1 mM DTT; DNA curtains: 25-150 mM NaCl tested; temperature not stated", "conditions": "protein: recombinant; tags: mCherry (pET-SUMO-mCherry-PARP1); dumbbell: two hairpins with a single nick"}},
  "data": [
    {"binder": "B1", "values": [
      {"measurement": "binding result", "setting": "mCherry-PARP1 [1]", "value": "binds"}
    ]},
    {"binder": "B2", "values": [
      {"measurement": "binding result", "setting": "PARP1", "value": "binds"}
    ]},
    {"binder": "GCTGGCTTCGTAAGAAGCCAGCTCGCGGTCAGCTTGCTGACCGCG (structured_DNA, 5'-phosphate)", "note": "[nicked dumbbell DNA]", "values": [
      {"measurement": "binding result", "setting": "mCherry-PARP1 [2]", "value": "binds"}
    ]}
  ]
}
